Holding throughout (experiment): BLI
For orientation: Biolayer interferometry detects binding as a change in optical thickness at a sensor tip.

Assay [1] deals with Biotinylated NH-GrgA (Chlamydia trachomatis) (UniProt O84512).
Assay [2] has as its target N-terminally His-tagged GrgA, full length (Chlamydia trachomatis) (UniProt O84512).
In assay [3] the target is NH-GrgAΔ1-64 (Chlamydia trachomatis) (UniProt O84512).
In assay [4] the target is N-terminally poly-His-tagged C. trachomatis σ^28 (C. trachomatis).
Chain of N-terminally poly-His-tagged C. trachomatis σ^28 (C. trachomatis) (B0B8K1 whole entry): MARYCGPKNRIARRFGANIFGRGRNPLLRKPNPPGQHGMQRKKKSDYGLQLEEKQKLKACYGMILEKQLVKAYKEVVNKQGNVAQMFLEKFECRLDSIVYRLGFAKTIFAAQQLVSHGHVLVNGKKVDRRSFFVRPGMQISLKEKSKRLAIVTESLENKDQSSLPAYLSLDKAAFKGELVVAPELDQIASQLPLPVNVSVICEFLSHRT
A further assay concerns the target T1, CH-σ^66 (C. trachomatis, UniProt P18333 1-571).
T1 sequence (looked up): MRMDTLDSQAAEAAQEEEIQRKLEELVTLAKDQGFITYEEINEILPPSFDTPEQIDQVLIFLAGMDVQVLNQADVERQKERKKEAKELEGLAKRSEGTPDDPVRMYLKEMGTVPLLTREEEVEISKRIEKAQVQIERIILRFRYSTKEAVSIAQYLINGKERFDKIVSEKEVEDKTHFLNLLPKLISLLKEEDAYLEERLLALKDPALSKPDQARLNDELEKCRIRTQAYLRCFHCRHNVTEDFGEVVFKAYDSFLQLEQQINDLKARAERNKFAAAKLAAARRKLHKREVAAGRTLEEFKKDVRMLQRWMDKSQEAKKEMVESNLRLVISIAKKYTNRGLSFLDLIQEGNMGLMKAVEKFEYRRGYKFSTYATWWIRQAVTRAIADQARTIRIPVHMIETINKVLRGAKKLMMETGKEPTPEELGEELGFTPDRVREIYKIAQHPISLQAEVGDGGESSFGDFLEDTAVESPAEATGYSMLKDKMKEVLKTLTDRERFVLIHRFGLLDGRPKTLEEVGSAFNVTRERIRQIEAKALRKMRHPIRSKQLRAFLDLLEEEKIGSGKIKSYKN

Assay [5] concerns the target T2, N-terminally His-tagged GrgA, full length (Chlamydia trachomatis, UniProt O84512 1-288).
T2 sequence (looked up): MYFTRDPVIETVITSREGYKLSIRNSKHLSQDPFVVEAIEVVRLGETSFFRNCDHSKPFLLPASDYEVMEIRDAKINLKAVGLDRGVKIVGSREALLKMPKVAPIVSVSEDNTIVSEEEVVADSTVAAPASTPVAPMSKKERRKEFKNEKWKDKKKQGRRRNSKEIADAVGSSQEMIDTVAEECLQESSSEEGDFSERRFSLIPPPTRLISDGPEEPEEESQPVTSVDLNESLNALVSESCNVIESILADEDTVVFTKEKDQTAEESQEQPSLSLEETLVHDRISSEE

As to NH-σ^28ΔR3 (natural protein), in assay [1], the fold higher KD than full length NH-σ^28 was 7 fold and the fold increase in ka against full length NH-σ^28 worked out at 3.5 fold.

For NH-σ^28ΔNL (domain or fragment), the fold higher KD than full length NH-σ^28 in assay [1] amounted to 345 fold.

In assay [1], NH-σ^28ΔR2 (natural protein) came in with a fold higher KD than full length NH-σ^28 of 177 fold and a fold reduction in ka against full length NH-σ^28 of 2 fold.

With NH-σ^28ΔR4 (natural protein), in assay [1], the fold higher KD than full length NH-σ^28 stood at 7 fold and the percent increase in ka against full length NH-σ^28 was found to be 50%.

Take “N-terminally strep-tagged σ^28 (natural protein)”: in assay [2], the fold higher KD than the NH-GrgA-CS-σ^66 interaction worked out at 32 fold. In assay [3], this molecule had a fold decrease in ka against full length NH-GrgA of 3 fold, a fold increase in KD against full length NH-GrgA of 4.8 fold and a fold increase in kd against full length NH-GrgA of 2 fold.

B1: N-terminally strep-tagged GrgA (natural protein, Chlamydia trachomatis, UniProt O84512 1-288, looked up)
chain: T2 sequence (looked up)
As for B1, the fold higher KD than the CH-σ^66-NS-GrgA interaction in assay [4] came out at 28 fold. In the assay with CH-σ^66, the “fold higher ka than for NH-σ^28 as ligand” value came to 3.7 fold and the “fold slower dissociation (kd) than from NH-σ^28” value was 6 fold.

B2: CS-σ^66 (natural protein, C. trachomatis, UniProt P18333 1-571, looked up)
chain: T1 sequence (looked up)
Turning to B2, in assay [5], the “fold higher ka than the NS-σ^28 analyte on NH-GrgA” value is 25 fold and the “fold increase in kd over the NS-σ^28 analyte on NH-GrgA” value was determined as 3 fold.

Values taken from publication doi:10.1101/322701 (bioRxiv, 2018).
